Drawing on US20210187069A1, this text covers axon degeneration after axotomy for one substance.

In this assay the target is wildtype SARM1 (endogenous, in wildtype mouse dorsal root ganglion neurons) (mouse) (UniProt Q6PDS3). Nature of the assay: cell-based or functional assay.
Sequence of wildtype SARM1 (endogenous, in wildtype mouse dorsal root ganglion neurons) (mouse) (Q6PDS3 28-724 limits assumed): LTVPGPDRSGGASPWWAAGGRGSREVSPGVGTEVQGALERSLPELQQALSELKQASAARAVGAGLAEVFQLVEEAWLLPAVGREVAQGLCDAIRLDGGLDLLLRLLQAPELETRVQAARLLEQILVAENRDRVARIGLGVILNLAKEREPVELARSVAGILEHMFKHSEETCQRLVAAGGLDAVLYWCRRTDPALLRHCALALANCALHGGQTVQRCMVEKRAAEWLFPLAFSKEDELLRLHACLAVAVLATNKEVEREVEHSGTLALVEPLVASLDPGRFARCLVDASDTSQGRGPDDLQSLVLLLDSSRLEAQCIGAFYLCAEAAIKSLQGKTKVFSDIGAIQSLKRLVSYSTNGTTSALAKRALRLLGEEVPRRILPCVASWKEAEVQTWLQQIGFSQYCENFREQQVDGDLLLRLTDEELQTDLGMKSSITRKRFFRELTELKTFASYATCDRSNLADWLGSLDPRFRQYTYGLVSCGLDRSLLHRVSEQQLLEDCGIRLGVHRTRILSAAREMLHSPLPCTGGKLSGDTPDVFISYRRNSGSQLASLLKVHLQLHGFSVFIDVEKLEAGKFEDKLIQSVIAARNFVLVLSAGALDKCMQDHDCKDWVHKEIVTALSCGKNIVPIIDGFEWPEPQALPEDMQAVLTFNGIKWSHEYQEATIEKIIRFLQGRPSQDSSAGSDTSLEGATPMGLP

“SARM1 E569K (from UniProt Q6SZW1 28-724)” yielded an axon degeneration after axotomy of 24 h.
